# According to patent US20110002929A1 (published 2011):
# T1: human RANK-L (human, UniProt O14788 140-317)
# T1 chain: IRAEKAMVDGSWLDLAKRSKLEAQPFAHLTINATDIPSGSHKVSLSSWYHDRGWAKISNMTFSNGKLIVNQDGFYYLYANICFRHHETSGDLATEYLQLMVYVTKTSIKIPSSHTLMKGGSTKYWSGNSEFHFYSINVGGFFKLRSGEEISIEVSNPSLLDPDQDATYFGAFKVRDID
# Target: T1, human RANK-L
# Assay: AlphaScreen competition
row,IC50,Binder
1,167 pM,RANKL13hum5 (VHH) VHH: EVQLVESGGGLVQPGGSLRLSCAASGFTFSSYPMGWFRQAPGKGREFVSSITGSGGSTYYADSVKGRFTISRDNAKNTLYLQMNSLRPEDTAVYYCAAYIRPDTYLSRDYRKYDYWGQGTLVTVSS
2,156 pM,RANKL13hum5_D62E (VHH) VHH: EVQLVESGGGLVQPGGSLRLSCAASGFTFSSYPMGWFRQAPGKGREFVSSITGSGGSTYYAESVKGRFTISRDNAKNTLYLQMNSLRPEDTAVYYCAAYIRPDTYLSRDYRKYDYWGQGTLVTVSS
3,228 pM,RANKL13 (VHH) VHH: EVQLVESGGGLVQAGGSLRLSCAASGRTFRSYPMGWFRQAPGKEREFVASITGSGGSTYYADSVKGRFTISRDNAKNTVYLQMNSLRPEDTAVYSCAAYIRPDTYLSRDYRKYDYWGQGTQVTVSS
